Source: PMC7000732, “Bridging non-overlapping reads illuminates high-order epistasis between distal protein sites in a GPCR” (Nature Communications, 2020)
“And” between values parts separate entries of the source, which are not always exact repeats. Equal values may be shown once. Read-outs that look alike come from different tables or passages of the source.

Assays:
[1] = Whole-cell saturation radioligand binding; design: species or system Saccharomyces cerevisiae; conditions: for Kd: 3H-NECA, whole yeast cells, pH 5.8, mean ± SD of three biological replicates, read-out: equilibrium dissociation constant (Kd); for CPM: raw replicate counts, empty vector not subtracted; for fold greater 3H-NECA binding affinity than wild-type receptor: ratio of Kd to wild-type
[2] = FACS-based screen of A2aR library with deep sequencing (BRIDGE): variant enrichment; assay type: cell-based, Saccharomyces cerevisiae
[3] = Fluorescent ligand binding measured by flow cytometry; design: species or system Saccharomyces cerevisiae; conditions: for fluorescent ligand binding signal / % pop above background / Mean Singlet Fluorescence Intensity (530 nm): replicates; for % pop above background / Mean Singlet Fluorescence Intensity (530 nm): incubated with FITC-APEC
[4] = naive to PS4 library (PS4/naive), high-stringency gating, 10 µM FITC-APEC

With “WT: wild-type human adenosine A2a receptor, decahistidine-tagged, expressed in yeast from centromeric pYC vector [reference compound]” the Kd [1] was 39.2 ± 4.8 nM, the CPM ([1]; [3H-NECA] 1.6 nM) was 64 CPM and 47 CPM and 35 CPM and the CPM ([1]; [3H-NECA] 3.1 nM) was 108 CPM and 89 CPM and 54 CPM. The CPM ([1]; [3H-NECA] 6.3 nM) was 192 CPM and 223 CPM and 155 CPM, the CPM ([1]; [3H-NECA] 12.5 nM) was 331 CPM and 408 CPM and 255 CPM and the CPM ([1]; [3H-NECA] 25 nM) was 470 CPM and 533 CPM and 388 CPM. The CPM ([1]; [3H-NECA] 50 nM) was 546 CPM and 694 CPM and 708 CPM, the CPM ([1]; [3H-NECA] 100 nM) was 805 CPM and 900 CPM and 958 CPM and the CPM ([1]; [3H-NECA] 200 nM) was 1026 CPM and 1370 CPM and 1371 CPM. The CPM ([1]; [3H-NECA] 400 nM) was 1047 CPM and 2304 CPM and 1995 CPM, the Enrichment rate [2, 4] was 0.3 and the Enrichment rate ([2]; naive to PS4 population) was 0.30 fold. The “fluorescent ligand binding signal” value ([3]; [FITC-APEC] 10 nM, Supplementary Figure 1 source data, listed as pYC A2a10H) was 101 and 100 and 99, the “fluorescent ligand binding signal” value ([3]; [FITC-APEC] 10 nM, Supplementary Figure 4 source data, listed as pYC A2a10H) was 104 and 103 and 102 and the “fluorescent ligand binding signal” value ([3]; [FITC-APEC] 100 nM, Supplementary Figure 1 source data, listed as pYC A2a10H) was 111 and 108 and 134. The “fluorescent ligand binding signal” value ([3]; [FITC-APEC] 100 nM, Supplementary Figure 4 source data, listed as pYC A2a10H) was 114 and 110 and 133, the “fluorescent ligand binding signal” value ([3]; [FITC-APEC] 1000 nM, Supplementary Figure 1 source data, listed as pYC A2a10H) was 208 and 180 and 189 and the “fluorescent ligand binding signal” value ([3]; [FITC-APEC] 1000 nM, Supplementary Figure 4 source data, listed as pYC A2a10H) was 206 and 184 and 191. For the same molecule, the “fluorescent ligand binding signal” value ([3]; [FITC-APEC] 10000 nM, Supplementary Figure 1 source data, listed as pYC A2a10H) was 370 and 353 and 396, the “fluorescent ligand binding signal” value ([3]; [FITC-APEC] 10000 nM, Supplementary Figure 4 source data, listed as pYC A2a10H) was 377 and 330 and 373 and the “fluorescent ligand binding signal” value ([3]; [FITC-APEC] 50000 nM, Supplementary Figure 1 source data, listed as pYC A2a10H) was 442 and 457 and 477. For the same molecule, the “fluorescent ligand binding signal” value ([3]; [FITC-APEC] 50000 nM, Supplementary Figure 4 source data, listed as pYC A2a10H) was 354 and 386 and 364.

For “pITy A2a10H: decahistidine-tagged wild-type A2aR expressed in yeast from multi-site-integrating pITy vector”, the “% pop above background” value ([3]; +raffinose) was 97.3% and 99.1% and 99.7%, the “Mean Singlet Fluorescence Intensity (530 nm)” value ([3]; +raffinose) was 1177 a.u. and 1389 a.u. and 1621 a.u and the “% pop above background” value ([3]; -raffinose) was 88.4% and 92.7% and 86.6%. The “Mean Singlet Fluorescence Intensity (530 nm)” value ([3]; -raffinose) was 853 a.u. and 1341 a.u. and 1013 a.u, the “fluorescent ligand binding signal” value ([3]; [FITC-APEC] 10 nM, Supplementary Figure 1 source data) was 102 and 103 and 101 and the “fluorescent ligand binding signal” value ([3]; [FITC-APEC] 100 nM, Supplementary Figure 1 source data) was 124 and 112 and 118. The “fluorescent ligand binding signal” value ([3]; [FITC-APEC] 1000 nM, Supplementary Figure 1 source data) was 357 and 323 and 352, the “fluorescent ligand binding signal” value ([3]; [FITC-APEC] 10000 nM, Supplementary Figure 1 source data) was 1097 and 999 and 1047 and the “fluorescent ligand binding signal” value ([3]; [FITC-APEC] 50000 nM, Supplementary Figure 1 source data) was 1681 and 1267 and 1322.

B1: C28A/C82A/C128A/C185A/C245S/C254A/C394S: inactive A2aR variant that does not bind ligand (protein, UniProt P29274 1-412, looked up, variant C28A C82A C128A C185A C245S C254A C394S)
Adenosine receptor A2a: MPIMGSSVYITVELAIAVLAILGNVLVAWAVWLNSNLQNVTNYFVVSLAAADIAVGVLAIPFAITISTGFCAACHGCLFIAAFVLVLTQSSIFSLLAIAIDRYIAIRIPLRYNGLVTGTRAKGIIAIAWVLSFAIGLTPMLGWNNCGQPKEGKNHSQGCGEGQVACLFEDVVPMNYMVYFNFFAAVLVPLLLMLGVYLRIFLAARRQLKQMESQPLPGERARSTLQKEVHAAKSLAIIVGLFALSWLPLHIINAFTFFCPDCSHAPLWLMYLAIVLSHTNSVVNPFIYAYRIREFRQTFRKIIRSHVLRQQEPFKAAGTSARVLAAHGSDGEQVSLRLNGHPPGVWANGSAPHPERRPNGYALGLVSGGSAQESQGNTGLPDVELLSHELKGVSPEPPGLDDPLAQDGAGVS
With B1 the “fluorescent ligand binding, result in words” value ([3]; FITC-APEC, yeast cells) was “does not bind ligand”.

B2: TSWLH: single-residue mutant Q89S of A2aR, the most abundant variant in PS4 (protein, UniProt P29274 1-412, looked up, variant Q89S)
Adenosine receptor A2a: MPIMGSSVYITVELAIAVLAILGNVLVCWAVWLNSNLQNVTNYFVVSLAAADIAVGVLAIPFAITISTGFCAACHGCLFIACFVLVLTSSSIFSLLAIAIDRYIAIRIPLRYNGLVTGTRAKGIIAICWVLSFAIGLTPMLGWNNCGQPKEGKNHSQGCGEGQVACLFEDVVPMNYMVYFNFFACVLVPLLLMLGVYLRIFLAARRQLKQMESQPLPGERARSTLQKEVHAAKSLAIIVGLFALCWLPLHIINCFTFFCPDCSHAPLWLMYLAIVLSHTNSVVNPFIYAYRIREFRQTFRKIIRSHVLRQQEPFKAAGTSARVLAAHGSDGEQVSLRLNGHPPGVWANGSAPHPERRPNGYALGLVSGGSAQESQGNTGLPDVELLSHELKGVCPEPPGLDDPLAQDGAGVS
For B2, the Kd [1] was 11.8 ± 1 nM, the CPM ([1]; [3H-NECA] 1.6 nM) was 269 CPM and 283 CPM and 176 CPM and the CPM ([1]; [3H-NECA] 3.1 nM) was 574 CPM and 478 CPM and 918 CPM. The CPM ([1]; [3H-NECA] 6.3 nM) was 877 CPM and 818 CPM and 594 CPM, the CPM ([1]; [3H-NECA] 12.5 nM) was 1293 CPM and 1161 CPM and 783 CPM and the CPM ([1]; [3H-NECA] 25 nM) was 1556 CPM and 1523 CPM and 1194 CPM. The CPM ([1]; [3H-NECA] 50 nM) was 2099 CPM and 1735 CPM and 1402 CPM, the CPM ([1]; [3H-NECA] 100 nM) was 2533 CPM and 2165 CPM and 1719 CPM and the CPM ([1]; [3H-NECA] 200 nM) was 2889 CPM and 2229 CPM and 2151 CPM. For the same molecule, the CPM ([1]; [3H-NECA] 400 nM) was 3382 CPM and 2947 CPM and 2944 CPM, the “fold greater 3H-NECA binding affinity than wild-type receptor” value [1] was “fourfold” and the “Fold increase in enrichment rate over WT” value [2] was 1121 fold.

B3: TGRIA: Variant GRIA (T88/Q89G/W246R/L249I/H250A) of human adenosine A2a receptor (protein, UniProt P29274 1-412, looked up, variant Q89G W246R L249I H250A)
Adenosine receptor A2a: MPIMGSSVYITVELAIAVLAILGNVLVCWAVWLNSNLQNVTNYFVVSLAAADIAVGVLAIPFAITISTGFCAACHGCLFIACFVLVLTGSSIFSLLAIAIDRYIAIRIPLRYNGLVTGTRAKGIIAICWVLSFAIGLTPMLGWNNCGQPKEGKNHSQGCGEGQVACLFEDVVPMNYMVYFNFFACVLVPLLLMLGVYLRIFLAARRQLKQMESQPLPGERARSTLQKEVHAAKSLAIIVGLFALCRLPIAIINCFTFFCPDCSHAPLWLMYLAIVLSHTNSVVNPFIYAYRIREFRQTFRKIIRSHVLRQQEPFKAAGTSARVLAAHGSDGEQVSLRLNGHPPGVWANGSAPHPERRPNGYALGLVSGGSAQESQGNTGLPDVELLSHELKGVCPEPPGLDDPLAQDGAGVS
In the case of B3, the Kd [1] is reported as 10.9 ± 0.8 nM, the CPM ([1]; [3H-NECA] 1.6 nM) is reported as 148 CPM and 222 CPM and 182 CPM and the CPM ([1]; [3H-NECA] 3.1 nM) is reported as 317 CPM and 337 CPM and 348 CPM. For the same molecule, the CPM ([1]; [3H-NECA] 6.3 nM) was 477 CPM and 597 CPM and 529 CPM, the CPM ([1]; [3H-NECA] 12.5 nM) was 612 CPM and 847 CPM and 800 CPM and the CPM ([1]; [3H-NECA] 25 nM) was 815 CPM and 1157 CPM and 1066 CPM. The CPM ([1]; [3H-NECA] 50 nM) was 1152 CPM and 1391 CPM and 1352 CPM, the CPM ([1]; [3H-NECA] 100 nM) was 1488 CPM and 1655 CPM and 1630 CPM and the CPM ([1]; [3H-NECA] 200 nM) was 1857 CPM and 2089 CPM and 2112 CPM. For the same molecule, the CPM ([1]; [3H-NECA] 400 nM) was 2326 CPM and 2813 CPM and 3169 CPM, the “fold greater 3H-NECA binding affinity than wild-type receptor” value [1] was “fourfold” and the Enrichment rate [2, 4] was 517. The “Fold increase in enrichment rate over WT” value ([2]; naive to PS4 library, WT rate 0.30) was 1722 fold.

B4: SLNIG: A2aR variant; letters are residues at T88, Q89, W246, L249, H250 (protein, UniProt P29274 1-412, looked up, variant T88S Q89L W246N L249I H250G)
Adenosine receptor A2a: MPIMGSSVYITVELAIAVLAILGNVLVCWAVWLNSNLQNVTNYFVVSLAAADIAVGVLAIPFAITISTGFCAACHGCLFIACFVLVLSLSSIFSLLAIAIDRYIAIRIPLRYNGLVTGTRAKGIIAICWVLSFAIGLTPMLGWNNCGQPKEGKNHSQGCGEGQVACLFEDVVPMNYMVYFNFFACVLVPLLLMLGVYLRIFLAARRQLKQMESQPLPGERARSTLQKEVHAAKSLAIIVGLFALCNLPIGIINCFTFFCPDCSHAPLWLMYLAIVLSHTNSVVNPFIYAYRIREFRQTFRKIIRSHVLRQQEPFKAAGTSARVLAAHGSDGEQVSLRLNGHPPGVWANGSAPHPERRPNGYALGLVSGGSAQESQGNTGLPDVELLSHELKGVCPEPPGLDDPLAQDGAGVS
With B4 the Kd [1] was 10.7 ± 0.6 nM, the CPM ([1]; [3H-NECA] 1.6 nM) was 138 CPM and 195 CPM and 220 CPM and the CPM ([1]; [3H-NECA] 3.1 nM) was 282 CPM and 376 CPM and 382 CPM. For the same molecule, the CPM ([1]; [3H-NECA] 6.3 nM) was 494 CPM and 563 CPM and 618 CPM, the CPM ([1]; [3H-NECA] 12.5 nM) was 783 CPM and 767 CPM and 883 CPM and the CPM ([1]; [3H-NECA] 25 nM) was 861 CPM and 1199 CPM and 1152 CPM. For the same molecule, the CPM ([1]; [3H-NECA] 50 nM) was 1216 CPM and 1410 CPM and 1521 CPM, the CPM ([1]; [3H-NECA] 100 nM) was 1341 CPM and 1416 CPM and 1794 CPM and the CPM ([1]; [3H-NECA] 200 nM) was 1692 CPM and 1849 CPM and 2050 CPM. For the same molecule, the CPM ([1]; [3H-NECA] 400 nM) was 2037 CPM and 2595 CPM and 2482 CPM, the Enrichment rate [2] was 791 and the “Fold increase in enrichment rate over WT” value [2] was 2635 fold.
